Test results published in the DeepSol protein solubility set.

Test: soluble on expression in E. coli; label from the status in PepcDB or PDB records

Q: With “MGSDKIHHHHHHMKRNTAQLKEKLIQTGVEEIKKNGLDQLSLRTIAKNCGVTHGTPYRHFKSKEDYLRVVLTRLSTFLNQEIAQGIDQKVSARDQLAQMGFNLITFTKRYPYFFEALFIKFPFKYMKITQETIVLDSDLPGFDKFKRIVFDLRKEESFTNSEAETLFHFWSFISGLAVLANSPIGRDLDNQAIHTTINHMLDIYIKGEQT” as the sequence, how does the “soluble on expression in E. coli” value read?
A: not soluble

Q: For “MGSDKIHHHHHHMKRPLQTWLTESWLAFSRLLTFHILERRLFEHSGRIPYEPQPGNLLYVAASVLPYHTSGYTTRTHEVVCALNKAGARVHVLTRPGYPWDRKDRLCDPVSEETTVGDMCYRHAQAPANNRPVLQYALQAARVVAESAVRHRVAVIHAASNHVNALPALLAARQLGIPFQYEMRGLWELTRISRQPGYEDSQAYKQGLQLEGLVARHADRLFVISEQLGKYVQTNWDIDAGRMALLPNCVDPERFLIADPQQIESNTIGYAGSLMGYEGLDTLIDAVDILVRSGSSVRVVIIGDGEARPQLETRVQRLGLSERIYFSGKMPPDAAREKLARCALVCIPRKPFKVCEIVPPIKLVEALAMGKPVIVPDLPVFRDELGDDPAGWFFRSGDAADLAHVIEAALGNEEKLREMSDQARDYVLAKRCWHRFVDKMAKPYDS”, which “soluble on expression in E. coli” value is on record?
A: not soluble

Q: For “MGSDKIHHHHHHMKSHVRSFKTYIRDEIIKKGGWVNAHAHADRAFTMTPEKIGIYHSSNLQQKWDLVDEVKRTSSVDDYYARFCQSIELMISQGVTAFGTFVDIDPICEDRAIIAAHKAREVYKHDIILKFANQTLKGVIEPTARKWFDIGAEMVDMIGGLPYRDELDYGRGLEAMDILLDKAKSLGIMCHVHVDQFNNPSEKETEQLCDKTIEHGMEGRVVGIHGISIGSHSKEYRYKLYEKMRKAKMMMIACPMAWIDSNRKEDLMPFHNALTPADEMIPEVSLLP”, which “soluble on expression in E. coli” value is on record?
A: not soluble

Q: With “MGSDKIHHHHHHMKSKIYILLLFLIFLSACANTRHSESDKNVLTVYSPYQSNLIRPILNEFEKQEHVKIEIKHGSTQVLLSNLHNEDFSERGDVFMGGVLSETIDHPEDFVPYQDTSVTQQLEDYRSNNKYVTSFLLMPTVIVVNSDLQGDIKIRGYQDLLQPILKGKIAYSNPNTTTTGYQHMRAIYSMHHRVSDVHQFQNHAMQLSKTSKVIEDVAKGKYYAGLSYEQDARTWKNKGYPVSIVYPIEGTMLNVDGIALVKNAHPHPKRKKLVQYLTSRSVQQRLVAEFDAKSIRKDVSEQSDQSIENLKNIPLIPKSKLPDIPHHKFLEMIQ” as the sequence, how does the “soluble on expression in E. coli” value read?
A: not soluble

Q: Which “soluble on expression in E. coli” value does the source give for “MGSDKIHHHHHHMKTARLIYNPTSGREQIRKSLAYILERLELAGYETSTHATTGEGSATEAARLAGERRHDLVIAAGGDGTIYEVVNGLAGLEKRPTLGLIPAGTTNDFARALNIPRDIEKACDILIEGHTKPVDVGKAGDHYFINIAAGGTLTELTYEVPSKLKTVVGQLAYYIKGLEKLPQISPTDVRIEYDGKLFEGEIMMFLVSNTNSVGGFERLAPNASLRDGMFDFIIVKKTSFPEFLHLAGLALRGEHIKHPKVLYVQANRIKVQAEKSMQLNFDGEYGGLLPAEFVNLYQHFQMLCPKD” here?
A: not soluble

Q: With “MGSDKIHHHHHHMKTDITVVKASHLQPFISFLDKVGAPLDRLLNQVNLHADYFSDQENLIAEAPFWALLEHASYSQGIEDLGFQVTEQLSLDSFGVFGAKVMQADSLHQALTTFIRDMGQQSNCPPFWLMEQGAFVWFCRLGTQGIKKGHWPIEQHVISLMIQLVRGFTTATWTPPKVHLQTHTLKGADNTASFSNSQILINKAFTGICISKSLLLNGAVIKPKDRVAEEVAHQMTISTVNSHVIKELLMQSCANQPLNAQQIANSLGLNIRHMQRLLKEEGCSYRELSEQVLFKQSQVMLSTEQLSVLEVALALGYSDAANFTRAFKRWSGLSPTQYKLLLN” as the sequence, how does the “soluble on expression in E. coli” value read?
A: not soluble

Q: With “MGSDKIHHHHHHMKTLQYSFAQIEAFATIAETGSLSQAAIRLAKDRTTLRDLLDYLEDALGYRLFSREGRSLTLTAEGEQLFRQAHLLLRQAQAFESFAQTLPQTAGQALRLVYDPFVPREFLCALADNLARRQIRLSCWSASRREAEQALSDGVAEMAICQANNRTLGSEMEWRALGTVDLRFYAADSLFHDAPRPLTLLNLSLTPQLVMHRRSDDQIARRLQISGHTLYMNEITLLRHALEQGRGWGFLPDHLRPGEWQGVSEIATEVGSQGLNVTMVMLWLPGMNKHRMLSDIVHEAPELWLRR” as the sequence, how does the “soluble on expression in E. coli” value read?
A: not soluble

Q: For “MGSDKIHHHHHHMKTRYTYGGDEHVYVEIDDEMSLDAFFIALSLSKLVREANIPGVTEICPANASFEVRFDPDVIAPDEMMARIRELEGAAKAQEKRLDTRIIEIPVFYEDPWTHETLMRFRERHQDPSGTDLDYAARINGYDDAAAFIEAHHSQPWFVSMVGFVSGLPFLYQLVERQKQLEVPKYLRPRTDTPKLTVGYGGCFSCIYSVRGAGGYQMFGITPMPIFDPEQKISYLKDFMVFFRPGDIVKWKPIDRAEYDAITAQVEAGSYVPKIAEVAFDLDAFNKDMTGFNAKLMEALNDA”, which “soluble on expression in E. coli” value is on record?
A: not soluble

Q: For “MGSDKIHHHHHHMKTTLAERLKTARTAQGLSQKALGDMIGVSQAAIQKIEVGKASQTTKIVELSNALHIRPEWLANGGGPMHSDRVVRSLQESSIPPTSKWGTVSAWDNTTKLSEDEVEVPFLKDIEFACGDGRIQSEDYNGFKLRFSKATLRKVGANTDGSGVLCFPAAGDSMEPIIPDGTTVAVDTNNKRIIDGKLYAIAQEGSGNDKLKRIKQLYRKPGGLLVIHSFNRDADEEAYESEVEIIGRVFWYSVLL”, which “soluble on expression in E. coli” value is on record?
A: not soluble

Q: With “MGSDKIHHHHHHMKVCVGIIGLGRIGHRFGISPQGDPLSHSEGYAQIPNVTVVLGVDPDPEACKNFLQRFSQAQVYSSLKDVPDGLHLEVVSVCSPTHLHAQGVIAALAWRPRVILCEKPLAVNVAEAEIMLAACSAQGCILITNYSRRWTPMLQALKNLTNQDDGLGTPIGACLRYNGGLLHNGTHWIDMLLALFGSVSCTYRLEKLSVAQDDAAESIALSWNSGLTAYLIAVRGTGCSIGEGELWGTGGMLRYSAGGGQVTWQTAQPSQWSGFQELDQAKIICEAGLKGHILGAVTEAVQLAKIGGQPTCSGADGVLALQVVEMARNNKFLIK” as the sequence, how does the “soluble on expression in E. coli” value read?
A: not soluble

Q: With “MGSDKIHHHHHHMKVEITVSEDRMQAYVTLRKEGSSELPLTKEELLNALLSAGINHGIKEEIIEDLARSPVYNTPVLVAEGTPPVDGEDGRVELLKKIEFSSHEGEKIDLREIPAKQRVIVRKGETIARIIPPTPGKEGMDVFGNPVKPKPGRVPEYHLGYNVATKNNEIIATKSGILVIEPNGTIHVYDTLEVDNVDYSTGNIDFPGKVVVKGDVKPDFVVKAQEDITVKGVIEAATVISFNGSITAGGIKGRGKAFVKAKKTVKAVFIESAEVEAEEVQVEKNIENSAVKAINVVVSGKGGSIRGGITIAQVKVETYFLGSPIGVKTRVEVGVDPEINEKIKLLSAQISLDRENVQKLTKLLVELRKLQGMLKDKFPPDKEALLNKVNNTLINLRDSIQKNEGELKRLKEIAEEMAKNASVVVKEVVYSGVEIVMFERVFRVEKELAKAVFYYRDGEIRVGGYSA” as the sequence, how does the “soluble on expression in E. coli” value read?
A: not soluble

Q: Which “soluble on expression in E. coli” value does the source give for “MGSDKIHHHHHHMKVFTEKIPNIPWEERPEGYTGPVWRYSKNPIIGRNPVPKGARVFNSAVVPYNGEFVGVFRIDHKNTRPFLHFGRSKDGINWEIEPEEIQWVDVNGEPFQPSYAYDPRVVKIEDTYYITFCTDDHGPTIGVGMTKDFKTFVRLPNAYVPFNRNGVLFPRKINGKYVMLNRPSDNGHTPFGDIFLSESPDMIHWGNHRFVLGRSSYNWWENLKIGAGPYPIETSEGWLLIYHGVTLTCNGYVYSFGAALLDLDDPSKVLYRSRYYLLTPEEEYETVGFVPNVVFPCAALCDADTGRVAIYYGAADTHVALAFGYIDEIVDFVKRNSM” here?
A: soluble

Q: Which “soluble on expression in E. coli” value does the source give for “MGSDKIHHHHHHMKVFVTGATGFIGASIARELLKDGCHVRVLARPGSDRRNLDGLDVEVCEGDLCSPESLDRGVKGCEVLYHAAADYRLWTRNPAAMYAANVEGTRHVLDAALRHGVSRVVYTSSVGTLGNPGDGTPGTEATPVTFADMVGDYKKSKFLAEREAETFLARGLPLVIVNPSTPVGPHDVKPTPTGKIIVDFLNRAMPAYLDTGLNIIDVEDCAQGHILAAQHGRIGEKYILGHENLTLRQIFSLLETVTGLAAPKVRLPYLPILAAAYANEALSRITGREPLIPLAGVQMARKFMYFDSSKAVKELGLPQRPAVEALGRAVEWFRANGYVR” here?
A: not soluble

Q: With “MGSDKIHHHHHHMKVTTISIDLAKNVFQVLGMDCHAKQVFNKRLNRTQLTEFMLQQPNCDVVFEACYSSHYWGRKFLAMGHNVKLIPAQHVTPFVRGSKNDNNDTMAIYEASFRPNIRFVPVKTEEQQEILMLHRIRERLVKEKTACTNQIRGVLVDFGICFAQGYKAFEVAIWDIINDASQRPIIKLMANDFWGEYQSVNTRLDRINTLIKKLIERDPNGKILLSIPGVGPIIASAFVASIGRGQAFNTAKELGVWLGLTPKQFASGHRSVNGSITKRGNGYLRKQLIHGARAVVSHASKKQDDLNLWIMQLRSRKSICSTVVATAHRLARLIWILLQKQVPYVPQYAANQGVNHGTC” as the sequence, how does the “soluble on expression in E. coli” value read?
A: not soluble

Q: With “MGSDKIHHHHHHMKVVFLICNPAAGGGRAGKIWNRVEDLLKKHGIDHKFAFTERPGHAMEISKKAFKEGYRRIAAFGGDGTVNEMVNGIFLNGYDLREVVFGWIPFGSGKDWARTIGVPLEIEEAIKMLKDGKEFVQDLGVGEYEKASGEIEKRAFVNVAGLFFDGFVTYRTNLLKRKNRVSYFSRIFSSIIEYDPPTARIQIDEKVWEKRVFSMNVGICKYNGGGMNQLPHAVPDDGLLAVTVINDIGKLRILANLHRVFNGKLLEHPGVEGYQAKKVVVEFQRDEPVEFDGESFWAKKIFFSIIPGVIRVLVKK” as the sequence, how does the “soluble on expression in E. coli” value read?
A: not soluble

Q: With “MGSDKIHHHHHHMKYKNLFFDLDDTIWAFSRNARDTFEEVYQKYSFDRYFDSFDHYYTLYQRRNTELWLEYGEGKVTKEELNRQRFFYPLQAVGVEDEALAERFSEDFFAIIPTKSGLMPHAKEVLEYLAPQYNLYILSNGFRELQSRKMRSAGVDRYFKKIILSEDLGVLKPRPEIFHFALSATASALRESLMIGDSWEADITGAHGVGMHQAFYNVTERTVFPFQPTYHIHSLKELMNLL” as the sequence, how does the “soluble on expression in E. coli” value read?
A: not soluble

Q: Which “soluble on expression in E. coli” value does the source give for “MGSDKIHHHHHHMKYTELLQLQTFFSRFKKIDFIKRINDNILELSFDRERFIFDLTRAMSAIYTAKFNAKNYNAPFDFMLKKYFSNAFIKEVKVLEGNRILCFSVKANKAYKSYESKIYFEFTGKNTNVILTDEKDLIIEALRHIDKSYRVVKPNVILESLKPYKMDENFEEIKDFADYFSRKFTSIYESKIKQIKNLKLAQVDKKIQNLQELFSSLDEENSLLLKALEYRKRADVLFANLSVLKDYEREFKLDDFEGKELEFKLEFNPKQSANLYYKNAKKLEQKAKNLNIQRQNLKEKLDFTLSLKELLLQAKSEIELEILLPKKNSKKNQDHKQEDLVANFYFNEFKICVGKNEKGNEFLLKNAKKDDLWLHVRDIPSAHTLIVSNKQKISLDVIEFAARLCVSFSKLKKGSYWVDYTLKNFVKVQQKAFVNYTNFKSINITKD” here?
A: not soluble

Q: With “MGSDKIHHHHHHMLAASMVDLARRLGVSSVHVTFPGGDEYEGLGEAGYLQRLGSQYHWTNPGYQSFDDFLGQLSSRKRKQIRKERDAVARTGIRLSTLVGGDVKARHWDVFHAFYQAVVDRKWGRAYVSRAFFEELSASALADSVVLVWAEDGGEPLGAAFNMLGGDTLYGRTWGGGRHVDFLHFEACYYRALDFAIAQGLARVEAGAQGEHKVSRGYLPNATYSAHWIADSRLAEPVARYLVHERAMVTEDMASQTEEGPFRKG” as the sequence, how does the “soluble on expression in E. coli” value read?
A: not soluble

Q: Which “soluble on expression in E. coli” value does the source give for “MGSDKIHHHHHHMLAKRIIACLDVKDGRVVKGTNFENLRDSGDPVELGKFYSEIGIDELVFLDITASVEKRKTMLELVEKVAEQIDIPFTVGGGIHDFETASELILRGADKVSINTAAVENPSLITQIAQTFGSQAVVVAIDAKRVDGEFMVFTYSGKKNTGILLRDWVVEVEKRGAGEILLTSIDRDGTKSGYDTEMIRFVRPLTTLPIIASGGAGKMEHFLEAFLAGADAALAASVFHFREIDVRELKEYLKKHGVNVRLEGL” here?
A: soluble
